Reference: paper PMC6456745

Legend:
[1] = target: AccS′ (soluble C-terminal autokinase module of the AccS sensor kinase), His6-tagged (Azoarcus sp. CIB); assay: AUC; sedimentation velocity, 20°C, 48,000 rpm, AccS′ 1 mg/ml, in the absence of DTT or with 0.1 mM DTT; dimer to monomers
[2] = target: AccS′ (soluble C-terminal autokinase module of the AccS sensor kinase), His6-tagged (Azoarcus sp. CIB); assay: AUC; sedimentation velocity, 20°C, 48,000 rpm, AccS′ 1 mg/ml, with 0.1 mM DTT and 250 µM ubiquinone Q0; dimer to monomers

“AccS′ (soluble C-terminal autokinase module of the AccS sensor kinase), His6-tagged (domain or fragment)” was tested, and the percent of the protein as dimer (in the absence of DTT) [1] was 62%, the percent of the protein as dimer (with DTT) [1] was 88% and the stoichiometry N [1] was 2. It also gave a percent of the protein as dimer (with DTT and Q0) [2] of 37% and a stoichiometry N [2] of 2.
